In article PMC7752801:
pKd: −log10 of the molar value.

Target: streptolysin O (SLO) isolated from group A Streptococcus (Streptococcus pyogenes (group A Streptococcus)) (UniProt P0C0I3)
Experiment: other fluorescence titration; SLO at 2.0×10^−8 M mixed with HSA from 0 M to 4.0×10^−8 M; fluorescence between 300 nm and 400 nm, excitation 280; apparent Kd from Eq. 1

Chain of UniProt P0C0I3 (P0C0I3 34-571): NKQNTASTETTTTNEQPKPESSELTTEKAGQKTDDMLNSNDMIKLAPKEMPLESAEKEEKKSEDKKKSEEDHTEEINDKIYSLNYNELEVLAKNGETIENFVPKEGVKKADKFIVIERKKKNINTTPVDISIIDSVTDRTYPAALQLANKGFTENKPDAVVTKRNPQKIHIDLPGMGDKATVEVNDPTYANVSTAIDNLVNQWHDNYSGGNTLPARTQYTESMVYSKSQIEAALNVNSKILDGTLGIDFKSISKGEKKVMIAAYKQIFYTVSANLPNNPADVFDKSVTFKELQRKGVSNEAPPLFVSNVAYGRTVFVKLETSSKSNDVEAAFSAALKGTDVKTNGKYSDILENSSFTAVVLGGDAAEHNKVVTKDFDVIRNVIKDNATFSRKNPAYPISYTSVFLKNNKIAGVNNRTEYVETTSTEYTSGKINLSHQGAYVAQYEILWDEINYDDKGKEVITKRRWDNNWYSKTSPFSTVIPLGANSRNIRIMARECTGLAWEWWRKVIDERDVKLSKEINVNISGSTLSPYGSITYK

Substance: L305A/F374A 6×His-tag-HSA (double mutant Leu305Ala/Phe374Ala) (natural protein)
- pKd: 8.14
